According to paper PMC2199935:

Experiments:
[1] = biological target: beta-catenin (canine (endogenous in MDCK)) (UniProt B6V8E6); test: co-IP
[2] = biological target: p120/p100 (anti-p120 immunoreactive material), canine (canine (endogenous in MDCK)); test: co-IP

| percent of the pool in association, normalised to 100% efficiency [1] [%] | percent of the pool in association, normalised to 100% efficiency [2] [%] | Molecule |
| --- | --- | --- |
| 21 |  | p120/p100 (anti-p120 immunoreactive material), canine (natural protein) |
|  | 24 | beta-catenin (natural protein) MATQADLMELDMAMEPDRKAAVSHWQQQSYLDSGIHSGATTTAPSLSGKGNPEEEDVDTTQVLYEWEQGFSQSFTQEQVADIDGQYAMTRAQRVRAAMFPETLDEGMQIPSTQFDAAHPTNVQRLAEPSQMLKHAVVNLINYQDDAELATRAIPELTKLLNDEDQVVVNKAAVMVHQLSKKEASRHAIMRSPQMVSAIVRTMQNTNDVETARCTAGTLHNLSHHREGLLAIFKSGGIPALVKMLGSPVDSVLFYAITTLHNLLLHQEGAKMAVRLAGGLQKMVALLNKTNVKFLAITTDCLQILAYGNQESKLIILASGGPQALVNIMRTYTYEKLLWTTSRVLKVLSVCSSNKPAIVEAGGMQALGLHLTDPSQRLVQNCLWTLRNLSDAATKQEGMEGLLGTLVQLLGSDDINVVTCAAGILSNLTCNNYKNKMMVCQVGGIEALVRTVLRAGDREDITEPAICALRHLTSRHQEAEMAQNAVRLHYGLPVVVKLLHPPSHWPLIKATVGLIRNLALCPANHAPLREQGAIPRLVQLLVRAHQDTQRRTSMGGTQQQFVEGVRMEEIVEGCTGALHILARDVHNRIVIRGLNTIPLFVQLLYSPIENIQRVAAGVLCELAQDKEAAEAIEAEGATAPLTELLHSRNEGVATYAAAVLFRMSEDKPQDYKKRLSVELTSSLFRTEPMAWNETADLGLDIGAQGEPLGYRQDDPSYRSFHSGGYGQDALGMDPMMEHEMGGHHPGADYPVDGLPDLGHAQDLMDGLPPGDSNQLAWFDTDL |
